Experimental data reported in patent publication US20060013804A1, “Modulation of stem cell differentiation by modulation of caspase-3 activity” (Ottawa Health Research Institute, priority 2002, published 2006).
“Also recorded” adds a separate entry of the source. Where a SMILES comes first, the peptide text is derived from it. The star is where a group is joined. Cbz = O=C(OCc1ccccc1)*; CH2F = FC*

How the values were obtained:
[1] = test system: clonally-derived CD1 neurospheres; assay: Neurite extensions / morphology of differentiating neurospheres; format: cell-based, mouse; conditions: differentiation media up to 5 d, 2.0 μM inhibitor, vs DMSO
Procedure: Neurospheres were sub-cultured no more than once per collection. The differentiation of neurospheres was initated by plating spheres on poly-L-ornithine coated plates in NeuroCult Differentiation Medium in the absence of bFGF, as per manufacturer's instructions. […] All cultures received fresh media and inhibitor every 24 h for the duration of the experiment. Neurospheres from caspase 3 null embryos (Fernando, P., et al., (2002) Proc Natl Acad Sci USA 99, 11025-11030) were cultured as described above.
Immunocytochemistry: Neurospheres were collected at selected time points, fixed in 4% paraformaldehyde and prepared for immunostaining as previously described (Fernando, P., et al., (2002) Proc Natl Acad Sci USA 99, 11025-11030)). The primary antibody concentrations for anti-nestin, -GFAP, -MBP and -active caspase 3 (BioVision, USA) were titrated on wildtype CD1 neurospheres prior to their experimental use. These antibodies were visualized by counterstaining with either FITC or Cy3 conjugated secondary antibodies (Chemicon USA). Nuclei were localized with 4′,6-Diamidino-2 phenylindole (DAPI) (Sigma, USA). Cells were visualized using either an Axiovert 100 for transmission microscopy or Axioplan 2 for fluorescent microscopy (Zeiss, Germany) at selected magnifications. Captured images were processed using AxioVision Viewer 3.0 software.
Quantitation of Neurite Extensions: Neurites from differentiating neurospheres were estimated from a total of 6-8 neurospheres per condition over three independent experiments. To quantitated neuritis, the average diameter of an individual neurosphere was estimated from the vertical and horizontal distance. The number of extensions leaving the neurosphere body were then counted and an ratio of neurosphere extensions:average neurosphere diameter was calculated for each. All measurements including neurosphere diameter were evaluated using Scion Image.

C2C12 myoblasts [2] = assay: C2C12 myoblast differentiation in low serum media with caspase inhibitors (MF20 staining, immunoblot of myogenic markers); format: cell-based, mouse; conditions: 20 μM inhibitor
Procedure: (§1) Myoblast culture. C2C12 cell (mouse skeletal muscle myoblast) cultures were grown and maintained in DMEM containing 10% FBS with 50 units/ml penicillin and 50 μg/ml streptomycin (Gibco). Differentiation was induced by incubating cultures in DMEM containing only a low serum concentration (2% horse serum). Caspase activity was measured using a Caspase-3 and Caspase-8 Fluorometric Assay Kit (Pharmingen). […] Control cells were treated with an equivalent amount of vehicle (DMSO). Primary myoblast cells were derived from skeletal muscles of the hind- and fore-limbs from 1-2 day old C57BL/6 wild-type, caspase-3 heterozygous and caspase-3 null mice (Frasch, S. C., et al., (1998) J. Biol. Chem. 273, 8389-8397; Kuida, K., et al., (1996) Nature 384, 368-372) (n=5 for each genotype) as described (Cregan, S. P. et al., (1999) J. Neuro. 19, 7860-7869.). To induce differentiation, primary myoblast cultures were incubated in DMEM containing 5% horse serum.
Protein isolation, immunoblot analyses and immunocytochemistry. Cells from C2C12 and primary myoblast cultures were washed with ice-cold PBS and lysed on ice for 45 minutes in modified-RIPA buffer containing 20 mM NaF, 5 mM Na3VO4 and 10 μg/ml each of aprotinin, leupeptin, pepstatin and PMSF. Total protein was measured using the BCA protein assay (Pierce). Immunoblot analyses were performed as described (Creasy, C. L., & Chernoff, J. (1995) J. Biol. Chem. 270, 21695-21700) using antibodies for MST1, MKK6, p38γ, and p38α (Upstate), p38 and MEF2C (Cell Signaling Technologies), myogenin F5D and myosin heavy chain MF20 mAb (Developmental Hybridoma Bank), and active caspase-3 (Biovision).
C2C12 myoblasts were fixed and stained with anti-MF20 as previously described (Cregan, et al., (1999) J. Neuro. 19, 7860-7869). Primary myoblast cultures were fixed in 4% paraformaldehyde, rinsed three times in PBS containing 0.01% Triton X-100 and stained as above. For both C2C12 and primary myoblast cultures, nuclei were detected by incubating cells for 10 min with 4,6-diamidino-2-phenylindole diluted 1:10000 in PBS.
Cells were fixed after 0, 2 and 4 days of differentiation and stained with the myosin heavy chain antibody MF20. […] In contrast, differentiation was more evident in cells that were incubated with caspase-8 inhibitor, z-LETD.fmk (FIG. 2B bottom panel, C).

Histone H1 = Histone H1 targeted kinase assay of MST1 constructs immunoprecipitated from transfected COS1 cells; format: biochemical; conditions: transiently transfected COS1 cells, Histone H1 substrate
Procedure: (§2) Transfection Assays. The complete open reading frame of the human MST1, [Genbank Accession No. gi|1117790] obtained from a clone bank collection (Stratagene) was inserted into the expression vector pcDNA3.1 Myc/His (Invitrogen). A constitutively active MST1 (MST1-act) was prepared as previously described (Megeney, L. A., et al., (1996) Genes Dev 10, 1173-1183). The integrity of both MST1 and MST1-act were confirmed by sequencing. The kinase activity of these protein products were verified by transient transfection into COS1 cells followed by immunoprecipitation and kinase analysis using Histone-H1 as the target substrate (see below). Transfections with MST1 and MST1-act into both COS1 and primary myoblasts were performed using Lipofectamine Plus (Gibco) as directed in the manufacturer's instructions.
Co-immunoprecipitation and kinase analyses. Immunoprecipitation was performed using 150-200 μg of total protein, incubated in modified-RIPA buffer at 4° C. for 16 h containing the respective antibody. Samples were mixed for 1 h with 25 μl of a 50% Protein G (Pharmacia). For co-immunoprecipitation, immunoprecipitates were washed in modified-RIPA buffer, boiled in 1× Lamelli buffer, separated by SDS-PAGE and Western blotted for immunoblot analyses. […] Following SDS-PAGE, gels were dried and phospho-incorporation was analyzed by autoradiography. […]

[3] = test system: caspase-3-/- primary myoblasts; assay: Transfection of MST1 constructs into caspase-3-/- primary myoblasts (rescue of myogenesis); format: cell-based, mouse; conditions: for myotube formation in caspase-3-/- myoblasts: transient transfection, primary caspase-3-/- myoblasts
Procedure: as §1, §2
To delineate the effect of MST1 on myogenesis, wild-type MST1, an activated MST1 (aa 1-330, MST1-act) or plasmid alone was transiently transfected into primary myoblasts derived from caspase-3^−/− mice. The activity of these constructs was verified by Histone H1 targeted kinase analysis of MST1 from transiently transfected COS1 cells (FIG. 5A).

[4] = test system: wildtype primary myoblasts; assay: Transfection of MST1-act into wildtype primary myoblasts; format: cell-based, mouse
Procedure: as §1
Transfection Assays. The complete open reading frame of the human MST1, [Genbank Accession No. gi|1117790] obtained from a clone bank collection (Stratagene) was inserted into the expression vector pcDNA3.1 Myc/His (Invitrogen). A constitutively active MST1 (MST1-act) was prepared as previously described (Megeney, L. A., et al., (1996) Genes Dev 10, 1173-1183). The integrity of both MST1 and MST1-act were confirmed by sequencing. […]

[5] = target: T1, human MST1 (Mammalian Sterile Twenty-like kinase), full length, in vitro translated from MST1-pcDNA3.1 Myc/His
T1 chain: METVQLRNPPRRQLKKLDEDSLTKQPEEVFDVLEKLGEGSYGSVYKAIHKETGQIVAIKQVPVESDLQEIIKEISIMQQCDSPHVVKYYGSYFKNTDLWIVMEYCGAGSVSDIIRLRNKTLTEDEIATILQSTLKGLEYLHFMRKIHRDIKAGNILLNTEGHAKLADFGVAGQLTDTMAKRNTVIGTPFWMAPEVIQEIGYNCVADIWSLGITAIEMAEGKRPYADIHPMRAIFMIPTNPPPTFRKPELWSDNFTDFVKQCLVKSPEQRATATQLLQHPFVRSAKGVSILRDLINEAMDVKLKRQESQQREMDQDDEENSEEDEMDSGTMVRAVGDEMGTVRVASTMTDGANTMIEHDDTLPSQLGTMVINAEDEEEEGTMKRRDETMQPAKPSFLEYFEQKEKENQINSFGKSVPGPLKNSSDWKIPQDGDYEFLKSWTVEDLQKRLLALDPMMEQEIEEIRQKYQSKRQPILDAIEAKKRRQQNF

C2C12 myoblasts [6] = assay: Transfection of recombinant active caspase-3 protein into subconfluent C2C12 myoblasts in growth media; format: cell-based, mouse
Procedure: To further test a cell-autonomous role of caspase-3 in inducing myoblast differentiation, active caspase-3 protein was transfected into a subconfluent population of C2C12 myoblasts maintained in growth media. Sub-confluent C2C12 myoblasts were transfected with […] of recombinant active caspase-3 and examined after 12 h for the presence of myosin heavy chain (anti-MF20) detected using a FITC conjugated secondary antibody. A confluent population of cells were incubated in low serum media (differentiation media) to induce myoblast differentiation and examined after 12 h. In all cells examined, nuclei were localised with DAPI staining. The results are shown in FIG. 3, which is representative of 7 trials.

Molecule: COC(=O)C[C@H](NC(=O)[C@H](C)NC(=O)[C@@H](NC(=O)OCc1ccccc1)C(C)C)C(=O)CF [z-VAD.fmk] (Cbz-Val-Ala-Asp(OMe)-CH2F)
- neurite extensions / morphological changes [1]: gave results similar to caspase 3 inhibition

Molecule: COC(=O)CC[C@H](NC(=O)[C@H](CC(C)C)NC(=O)OCc1ccccc1)C(=O)N[C@H](C(=O)N[C@@H](CC(=O)OC)C(=O)CF)[C@@H](C)O [z-LETD.fmk] (Cbz-LE(OMe)TD(OMe)-CH2F)
- myotube formation (C2C12 myoblasts [2]; C2C12, low serum media, MF20 staining, up to 4 days, vs DMSO): minor attenuation of myotube formation
- degree of differentiation (C2C12 myoblasts [2]; C2C12, low serum, vs vehicle treated cells): remained below that observed in vehicle treated cells

Molecule: CC[C@H](C)[C@H](NC(=O)OCc1ccccc1)C(=O)N[C@@H](CCC(=O)OC)C(=O)N[C@H](C(=O)N[C@@H](CC(=O)OC)C(=O)CF)[C@@H](C)O [z-IETD.fmk] (Cbz-IE(OMe)TD(OMe)-CH2F)
- neurite extensions / morphological changes [1]: did not affect morphological changes in neurosphere differentiation
- neurite extensions / morphological changes ([1]; listed as IETD): extensive neurite networking present

B1: MST1-act: constitutively active MST1 (aa 1-330) expressed from pcDNA3.1 Myc/His by transfection (protein, UniProt Q13043 1-330, looked up, fragment)
chain: METVQLRNPPRRQLKKLDEDSLTKQPEEVFDVLEKLGEGSYGSVYKAIHKETGQIVAIKQVPVESDLQEIIKEISIMQQCDSPHVVKYYGSYFKNTDLWIVMEYCGAGSVSDIIRLRNKTLTEDEIATILQSTLKGLEYLHFMRKIHRDIKAGNILLNTEGHAKLADFGVAGQLTDTMAKRNTVIGTPFWMAPEVIQEIGYNCVADIWSLGITAIEMAEGKPPYADIHPMRAIFMIPTNPPPTFRKPELWSDNFTDFVKQCLVKSPEQRATATQLLQHPFVRSAKGVSILRDLINEAMDVKLKRQESQQREVDQDDEENSEEDEMDSGTM
modifications: Myc/His tag
- kinase activity of construct (Histone H1): high level of kinase activity
- efficiency of differentiation ([3]; caspase-3 knockout myoblasts containing construct): > 85%
- myotube formation in caspase-3-/- myoblasts [3]: elongated and fused with neighbouring cells to form multinucleated myotubes; also recorded: differentiated to form fused, multinucleated myotubes
- myogenesis in wildtype myoblasts ([4]; 2 days in differentiation media, vs untransfected wildtype): comparable to wildtype cultures after 4-5 days of differentiation; also recorded: accelerated myogenesis after 2 days
- apoptosis on protracted differentiation ([4]; differentiation time course >4 days): enhanced apoptosis

B2: wild-type MST1: complete open reading frame of human MST1 in expression vector pcDNA3.1 Myc/His, transfected (protein)
chain: T1 chain
- myotube formation in caspase-3-/- myoblasts [3]: remained as mono-nucleated myoblasts

B3: caspase-3 (endogenous, in lysates or cultures of mouse C2C12 myoblasts and mouse CD1 neurospheres) (protein)
chain: SGIYLDSSYKMDYPEMGICIIINNKNFHKSTGMSSRSGTDVDAANLRETFMGLKYQVRNKNDLTREDILELMDSVSKEDHSKRSSFVCVILSHGDEGVIYGTNGPVELKKLTSFFRGDYCRSLTGKPKLFIIQACRGTELDCGIETDSGTDEEMACQKIPVEADFLYAYSTAPGYYSWRNSKDGSWFIQSLCSMLKLYAHKLEFMHILTRVNRKVATEFESFSLDSTFHAKKQIPCIVSMLTKELYFYH
- proteolytic cleavage of [35S]-methionine labelled MST1 by C2C12 lysates (SDS-PAGE, autoradiography) [5]: the lower 36 kDa MST1 fragment was not apparent in samples where caspase-3 activity was inhibited
- transfected cells undergoing differentiation (C2C12 myoblasts [6]; C2C12 in growth media, 20 µg protein, 12 h, myosin heavy chain immunodetection, n=4): > 95%
- morphologic features of apoptosis (C2C12 myoblasts [6]; transfected C2C12 expressing myosin heavy chain): did not display any morphologic features normally attributed to apoptosis
